From patent publication EP0957164B1 come the findings set out here.

As usually defined, the Kd is a measure of binding affinity in units of concentration. A higher Kd goes with weaker binding.

The test deals with insulin (UniProt P01308). The experiment in a line: PEG precipitation assay, A14-125I-insulin tracer displaced by unlabeled insulin, BHK medium.
Sequence of UniProt P01308 (P01308 90-110 limits assumed, chain 1 of 2): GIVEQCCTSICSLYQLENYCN
Sequence of UniProt P01308 (P01308 25-54 limits assumed, chain 2 of 2): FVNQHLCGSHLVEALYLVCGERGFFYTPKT
“IGFIR(Δ459-672).1-68, 704-729.IR (receptor)” showed a dissociation constant (Kd) of 4.4 nM.

Take IGFIR(Δ459-672).1-68IR (receptor): the Kd came out at 2.1 nM.

The substance IRΔ673 (receptor) gave a Kd of 1.1 nM.

As for IRΔ685 (receptor), the Kd is 6.4 nM.

Regarding IRΔ703 (receptor), the Kd is 4.4 nM.
